Experiments:
HeLa Kyoto [1] = experiment: thermal stability score vs G1/S (z-score of summed log2 fold changes over temperatures); higher = more thermally stable than in G1/S
HeLa Kyoto [2] = experiment: solubility in G1/S (NP-40 vs SDS abundance) (log2 ratio); higher = more soluble; conditions: cell cycle stage: G1/S
HeLa Kyoto [3] = experiment: melting temperature (median over replicates), in situ; higher = more thermally stable
HeLa Kyoto [4] = experiment: solubility change mitosis vs G1/S (difference of NP-40 vs SDS log2 ratios) (log2 ratio difference); higher = more soluble in mitosis
[5] = cell cycle stage: early G1 (4.5 h after nocodazole release)
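Wherever melting temperature (median over replicates), in situ is given: HeLa Kyoto cells synchronized by double thymidine or nocodazole block, proteins quantified by TMT10plex mass spectrometry, three independent biological replicates.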
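Wherever solubility change mitosis vs G1/S (difference of NP-40 vs SDS log2 ratios) is given: synchronized HeLa Kyoto cells (double thymidine block for G1/S, nocodazole release for mitosis), protein amounts in NP-40 versus SDS lysates quantified by mass spectrometry, three biological replicates.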
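Wherever solubility in G1/S (NP-40 vs SDS abundance) is given: HeLa Kyoto cells arrested at G1/S by double thymidine block, proteins quantified by TMT10plex mass spectrometry in mild NP-40 versus SDS extracts, three biological replicates.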
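Wherever thermal stability score vs G1/S (z-score of summed log2 fold changes over temperatures) is given: synchronized HeLa Kyoto cells, proteins quantified by TMT10plex mass spectrometry, three biological replicates, mitosis taken 0.5 h after nocodazole release, G1/S directly after double thymidine block.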

MLPARLPFRLLSLFLRGSAPTAARHGLREPLLERRCAAASSFQHSSSLGRELPYDPVDTEGFGEGGDMQERFLFPEYILDPEPQPTREKQLQELQQQQEEEERQRQQRREERRQQNLRARSREHPVVGHPDPALPPSGVNCSGCGAELHCQDAGVPGYLPREKFLRTAEADGGLARTVCQRCWLLSHHRRALRLQVSREQYLELVSAALRRPGPSLVLYMVDLLDLPDALLPDLPALVGPKQLIVLGNKVDLLPQDAPGYRQRLRERLWEDCARAGLLLAPGHQGPQRPVKDEPQDGENPNPPNWSRTVVRDVRLISAKTGYGVEELISALQRSWRYRGDVYLVGATNAGKSTLFNTLLESDYCTAKGSEAIDRATISPWPGTTLNLLKFPICNPTPYRMFKRHQRLKKDSTQAEEDLSEQEQNQLNVLKKHGYVVGRVGRTFLYSEEQKDNIPFEFDADSLAFDMENDPVMGTHKSTKQVELTAQDVKDAHWFYDTPGITKENCILNLLTEKEVNIVLPTQSIVPRTFVLKPGMVLFLGAIGRIDFLQGNQSAWFTVVASNILPVHITSLDRADALYQKHAGHTLLQIPMGGKERMAGFPPLVAEDIMLKEGLGASEAVADIKFSSAGWVSVTPNFKDRLHLRGYTPEGTVLTVRPPLLPYIVNIKGQRIKKSVAYKTKKPPSLMYNVRKKKGKINV [NOA1]
thermal stability score (HeLa Kyoto [1]; [5]): -0.456
thermal stability score (HeLa Kyoto [1]; cell cycle stage: mitosis): 0.655
solubility in G1/S (log2) (HeLa Kyoto [2]): 0.131
melting temperature (HeLa Kyoto [3]; cell cycle stage: G1/S): 49.8 °C
melting temperature (HeLa Kyoto [3]; cell cycle stage: mitosis): 50.1 °C
solubility change mitosis (log2) (HeLa Kyoto [4]): -0.187

MGQREMWRLMSRFNAFKRTNTILHHLRMSKHTDAAEEVLLEKKGCTGVITLNRPKFLNALTLNMIRQIYPQLKKWEQDPETFLIIIKGAGGKAFCAGGDIRVISEAEKAKQKIAPVFFREEYMLNNAVGSCQKPYVALIHGITMGGGVGLSVHGQFRVATEKCLFAMPETAIGLFPDVGGGYFLPRLQGKLGYFLALTGFRLKGRDVYRAGIATHFVDSEKLAMLEEDLLALKSPSKENIASVLENYHTESKIDRDKSFILEEHMDKINSCFSANTVEEIIENLQQDGSSFALEQLKVINKMSPTSLKITLRQLMEGSSKTLQEVLTMEYRLSQACMRGHDFHEGVRAVLIDKDQSPKWKPADLKEVTEEDLNNHFKSLGSSDLKF [HIBCH]
thermal stability score (HeLa Kyoto [1]; [5]): 0.653
thermal stability score (HeLa Kyoto [1]; cell cycle stage: mitosis): 0.967
solubility in G1/S (log2) (HeLa Kyoto [2]): 0.343
melting temperature (HeLa Kyoto [3]; cell cycle stage: G1/S): 49.7 °C
melting temperature (HeLa Kyoto [3]; cell cycle stage: mitosis): 50.2 °C
solubility change mitosis (log2) (HeLa Kyoto [4]): -0.019

MASTSYDYCRVPMEDGDKRCKLLLGIGILVLLIIVILGVPLIIFTIKANSEACRDGLRAVMECRNVTHLLQQELTEAQKGFQDVEAQAATCNHTVMALMASLDAEKAQGQKKVEELEGEITTLNHKLQDASAEVERLRRENQVLSVRIADKKYYPSSQDSSSAAAPQLLIVLLGLSALLQ [BST2]
thermal stability score (HeLa Kyoto [1]; [5]): -4.66
thermal stability score (HeLa Kyoto [1]; cell cycle stage: mitosis): -5.14
solubility in G1/S (log2) (HeLa Kyoto [2]): -0.713
melting temperature (HeLa Kyoto [3]; cell cycle stage: G1/S): 57.4 °C
melting temperature (HeLa Kyoto [3]; cell cycle stage: mitosis): 56.4 °C
solubility change mitosis (log2) (HeLa Kyoto [4]): 0.237

MDSVEKGAATSVSNPRGRPSRGRPPKLQRNSRGGQGRGVEKPPHLAALILARGGSKGIPLKNIKHLAGVPLIGWVLRAALDSGAFQSVWVSTDHDEIENVAKQFGAQVHRRSSEVSKDSSTSLDAIIEFLNYHNEVDIVGNIQATSPCLHPTDLQKVAEMIREEGYDSVFSVVRRHQFRWSEIQKGVREVTEPLNLNPAKRPRRQDWDGELYENGSFYFAKRHLIEMGYLQGGKMAYYEMRAEHSVDIDVDIDWPIAEQRVLRYGYFGKEKLKEIKLLVCNIDGCLTNGHIYVSGDQKEIISYDVKDAIGISLLKKSGIEVRLISERACSKQTLSSLKLDCKMEVSVSDKLAVVDEWRKEMGLCWKEVAYLGNEVSDEECLKRVGLSGAPADACSTAQKAVGYICKCNGGRGAIREFAEHICLLMEKVNNSCQK [CMAS]
thermal stability score (HeLa Kyoto [1]; [5]): -0.251
thermal stability score (HeLa Kyoto [1]; cell cycle stage: mitosis): -0.391
solubility in G1/S (log2) (HeLa Kyoto [2]): -0.289
melting temperature (HeLa Kyoto [3]; cell cycle stage: G1/S): 50.8 °C
melting temperature (HeLa Kyoto [3]; cell cycle stage: mitosis): 50 °C
solubility change mitosis (log2) (HeLa Kyoto [4]): 0.303

MLKKFDKKDEESGGGSNPFQHLEKSAVLQEARVFNETPINPRKCAHILTKILYLINQGEHLGTTEATEAFFAMTKLFQSNDPTLRRMCYLTIKEMSCIAEDVIIVTSSLTKDMTGKEDNYRGPAVRALCQITDSTMLQAIERYMKQAIVDKVPSVSSSALVSSLHLLKCSFDVVKRWVNEAQEAASSDNIMVQYHALGLLYHVRKNDRLAVNKMISKVTRHGLKSPFAYCMMIRVASKQLEEEDGSRDSPLFDFIESCLRNKHEMVVYEAASAIVNLPGCSAKELAPAVSVLQLFCSSPKAALRYAAVRTLNKVAMKHPSAVTACNLDLENLVTDSNRSIATLAITTLLKTGSESSIDRLMKQISSFMSEISDEFKVVVVQAISALCQKYPRKHAVLMNFLFTMLREEGGFEYKRAIVDCIISIIEENSESKETGLSHLCEFIEDCEFTVLATRILHLLGQEGPKTTNPSKYIRFIYNRVVLEHEEVRAGAVSALAKFGAQNEEMLPSILVLLKRCVMDDDNEVRDRATFYLNVLEQKQKALNAGYILNGLTVSIPGLERALQQYTLEPSEKPFDLKSVPLATAPMAEQRTESTPITAVKQPEKVAATRQEIFQEQLAAVPEFRGLGPLFKSSPEPVALTESETEYVIRCTKHTFTNHMVFQFDCTNTLNDQTLENVTVQMEPTEAYEVLCYVPARSLPYNQPGTCYTLVALPKEDPTAVACTFSCMMKFTVKDCDPTTGETDDEGYEDEYVLEDLEVTVADHIQKVMKLNFEAAWDEVGDEFEKEETFTLSTIKTLEEAVGNIVKFLGMHPCERSDKVPDNKNTHTLLLAGVFRGGHDILVRSRLLLLDTVTMQVTARSLEELPVDIILASVG [COPG1]
thermal stability score (HeLa Kyoto [1]; [5]): 0.468
thermal stability score (HeLa Kyoto [1]; cell cycle stage: mitosis): -0.737
solubility in G1/S (log2) (HeLa Kyoto [2]): -0.169
melting temperature (HeLa Kyoto [3]; cell cycle stage: G1/S): 52 °C
melting temperature (HeLa Kyoto [3]; cell cycle stage: mitosis): 51.5 °C
solubility change mitosis (log2) (HeLa Kyoto [4]): -0.224

MAAEPLTELEESIETVVTTFFTFARQEGRKDSLSVNEFKELVTQQLPHLLKDVGSLDEKMKSLDVNQDSELKFNEYWRLIGELAKEIRKKKDLKIRKK [S100A13]
thermal stability score (HeLa Kyoto [1]; [5]): -6.56
thermal stability score (HeLa Kyoto [1]; cell cycle stage: mitosis): -6.62
solubility in G1/S (log2) (HeLa Kyoto [2]): -0.421
melting temperature (HeLa Kyoto [3]; cell cycle stage: G1/S): 53.4 °C
melting temperature (HeLa Kyoto [3]; cell cycle stage: mitosis): 52 °C
solubility change mitosis (log2) (HeLa Kyoto [4]): 0.294
